US7521047 (GPC BIOTECH, dated 2009)
Where a chain is given by its changes, count along the chain named.

B1: MS-GPC-8-6-47 Fab (Fab, V domains shown)
VH: QVQLKESGPALVKPTQTLTLTCTFSGFSLSTSGVGVGWIRQPPGKALEWLALIDWDDDKYYSTSLKTRLTISKDTSKNQVVLTMTNMDPVDTATYYCARSPRYRGAFDYWGQGTLVTVSS
VL: DIVLTQPPSVSGAPGQRVTISCSGSESNIGSNYVSWYQQLPGTAPKLLIYDNNQRPSGVPDRFSGSKSGTSASLAITGLQSEDEADYYCQSYDYDHYVFGGGTKLTVLG
notes: Fab: VH-CH1 with FLAG tag and STREP tag II, VL-CL; VH residue 1 is Q in Fab
B2: MS-GPC-8-6 IgG (antibody, V domains shown)
VH: B1 VH
VL: B1 VL with E26S
B3: MS-GPC-8-6-2 IgG (antibody, V domains shown)
VH: B1 VH
VL: B1 VL with S35H
B4: MS-GPC-8-6-45 Fab (Fab, V domains shown)
VH: B1 VH
VL: B1 VL with S27P, S35F
notes: as for B1
B5: MS-GPC-8-27-7 Fab (Fab, V domains shown)
VH: B1 VH
VL: B1 VL with S31N, S35G, Y94M, D95N, H96V, Y97H
notes: as for B1
B6: MS-GPC-8-27 Fab (Fab, V domains shown)
VH: B1 VH
VL: B1 VL with E26S, Y94M, D95N, H96V, Y97H
notes: as for B1
B7: MS-GPC-8-10-57 Fab (Fab, V domains shown)
VH: B1 VH
VL: B1 VL with S31N, S35Q, Y94L, D95I, H96R, Y97H
notes: Fab: VH-CH1 with FLAG tag and STREP tag II, VL-CL; VH residue 1 is Q in Fab; also called 1C7277
B8: MS-GPC-8-18 Fab (Fab, V domains shown)
VH: B1 VH
VL: B1 VL with E26S, Y94F, D95S, H96I
notes: as for B1
B9: MS-GPC-8-9 Fab (Fab, V domains shown)
VH: B1 VH
VL: B1 VL with E26S, Y94I, D95Q, H96L, Y97H
notes: as for B1
B10: MS-GPC-8-6-13 Fab (Fab, V domains shown)
VH: B1 VH
VL: B1 VL with S31A, S35T
notes: Fab: VH-CH1 with FLAG tag and STREP tag II, VL-CL; VH residue 1 is Q in Fab; also called 305D3
B11: MS-GPC-8-10 Fab (Fab, V domains shown)
VH: B1 VH
VL: B1 VL with E26S, Y94L, D95I, H96R, Y97H
notes: as for B1
B12: MS-GPC-8-6-19 Fab (Fab, V domains shown)
VH: B1 VH
VL: B1 VL with S35A
notes: as for B1
B13: MS-GPC-8-6-2 Fab (Fab, V domains shown)
VH: B1 VH
VL: B1 VL with S35H
notes: as for B1
B14: MS-GPC-8-6-27 Fab (Fab, V domains shown)
VH: B1 VH
VL: B1 VL with E26D, S31A, S35T
notes: as for B1
B15: MS-GPC-8-1 Fab (Fab, V domains shown)
VH: B1 VH
VL: B1 VL with E26S, Y94F, D95S
notes: as for B1
B16: MS-GPC-8-27-10 Fab (Fab, V domains shown)
VH: B1 VH
VL: B1 VL with S31A, S35N, Y94M, D95N, H96V, Y97H
notes: as for B1
B17: L243 (antibody, V domains shown)
VH: QIQLVQSGPELKKPGETVKISCKASGFTFTNYGMNWVKQAPGKGLKWMGWINTYTREPTYADDFKGRFAFSLETSASTAYLQINNLKNEDTAKYFCARDITAVVPTGFDYWGQGTTLTVSS
VL: DIQMTQSPASLSVSVGETVTITCRASENIYSNLAWYRQKQGKSPQLLVFAASNLADGVPSRFSGSGSGTQYSLKINSLQSEDFGDYYCQHFWTTPWAFGGGTNLEIK

How the values were obtained:
[1] = target: T1, human MHC class II DR protein (DRA*0101/DRB1*0401), purified from PRIESS cells (human, UniProt P01903 26-254; P01911 30-266, limits assumed); test: SPR (BIAcore), MHCII on CM5 chip
T1 construct: mature; also called HLA-DR protein; MHCII
T1 MHC II alpha: not shown
T1 MHC II beta: not shown

[2] = target: chimeric 0401-IE class II molecule on cells of transgenic mice (human/murine chimera); test: cell-based or functional assay
[3] = target: T1, human MHC class II DR protein …; test: SPR (BIAcore), MHCII on CM5 chip
[4] = target: T1, human MHC class II DR protein …; test: ELISA, coated antigen, Fab 100 ng/well, read at 370 nm
Procedure: (§1) After washing in PBS the anti-human IgG F(ab')_2-peroxidase-conjugate at a 1:10,000 dilution in TBS (supplemented with 5% w/v non-fat drymilk/0.05% v/v Tween 20) was added to each well for 1 h. Final washes were carried out in PBS followed the addition the substrate POD (Roche).

BSA = target: T2, BSA (bovine, UniProt P02769 25-607); test: as above
T2 construct: negative control antigen; also called bovine serum albumine
T2 sequence (P02769 25-607 limits assumed): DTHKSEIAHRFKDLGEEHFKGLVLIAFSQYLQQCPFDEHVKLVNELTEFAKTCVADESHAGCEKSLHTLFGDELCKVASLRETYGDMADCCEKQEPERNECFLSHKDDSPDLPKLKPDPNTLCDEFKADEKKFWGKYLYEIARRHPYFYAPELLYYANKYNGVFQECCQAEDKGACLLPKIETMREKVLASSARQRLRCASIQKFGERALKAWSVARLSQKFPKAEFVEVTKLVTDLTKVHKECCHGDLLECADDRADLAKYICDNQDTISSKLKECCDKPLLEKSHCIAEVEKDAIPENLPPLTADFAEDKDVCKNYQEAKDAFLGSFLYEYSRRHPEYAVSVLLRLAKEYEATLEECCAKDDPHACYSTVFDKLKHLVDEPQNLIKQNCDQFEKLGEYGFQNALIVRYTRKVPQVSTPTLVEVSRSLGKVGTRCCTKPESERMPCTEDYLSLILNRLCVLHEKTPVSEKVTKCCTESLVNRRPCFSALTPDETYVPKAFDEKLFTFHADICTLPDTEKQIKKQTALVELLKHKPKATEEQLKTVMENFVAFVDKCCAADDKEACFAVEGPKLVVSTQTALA
Procedure: as §1

lysozyme = target: T3, lysozyme; test: as above
T3 construct: negative control antigen
T3 sequence (P00698 19-147): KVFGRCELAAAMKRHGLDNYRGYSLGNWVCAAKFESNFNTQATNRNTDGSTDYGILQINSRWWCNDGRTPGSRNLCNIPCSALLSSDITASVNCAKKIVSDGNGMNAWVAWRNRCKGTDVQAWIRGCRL
Procedure: as §1

[5] = target: T1, human MHC class II DR protein …; test: SPR (BIAcore), chip density 4000 RU MHCII
[6] = target: T4, HLA-DR (DRA*0101/DRB1*0401) on PRIESS cells (human, UniProt P01903 26-254; P01911 30-266); test: cell-based or functional assay
T4 MHC II alpha: not shown
T4 MHC II beta: not shown

Binder | Kd [1] [nM] | koff [1] [s⁻¹] | kon [1] [M⁻¹ s⁻¹] | IC50 of inhibition of IL-2 secretion from T-Hyb 1 cells [2] | Maximum inhibition(%) of IL-2 secretion [2] [%] | Kd [3] [nM] | koff [3] [s⁻¹] | kon [3] [M⁻¹ s⁻¹] | ELISA signal [4] | ELISA signal (BSA) | binding result (BSA) | ELISA signal (lysozyme) | Kd [5] [nM] | koff [5] [s⁻¹] | kon [5] [M⁻¹ s⁻¹] | EC50 of cell killing, cross-linked Fab, bivalent agent [6] [nM] | EC50 of cell killing, mIgG [6] [nM]
B1 | 3.2 | 0.00062 | 200000 | 2.6 nM (half the concentration of the Fab) | 100 | 3.18 | 0.00062 | 197000 | 1.4 | 0.008 | no binding (tested: 100 ng/well) | 0.013 | – | – | – | – | –
B2 | – | – | – | 6.7 nM | 100 | – | – | – | – | – | – | – | – | – | – | – | –
B3 | – | – | – | 3.6 nM | 100 | – | – | – | – | – | – | – | – | – | – | – | –
B4 | 8.6 | 0.00103 | 120000 | – | – | 8.63 | 0.00103 | 120000 | – | – | – | – | – | – | – | – | –
B5 | 3.3 | 0.00057 | 170000 | 5.9 nM (half the concentration of the Fab) | 100 | 3.3 | 0.00057 | 174000 | 1.55 | – | – | – | – | – | – | – | –
B6 | – | – | – | – | – | – | 0.0066 | – | – | – | – | – | – | – | – | – | –
B7 | – | – | – | 2.9 nM (half the concentration of the Fab) | 100 | – | – | – | 1.26 | 0.003 | no binding (tested: 100 ng/well) | 0.014 | – | – | – | – | –
B8 | – | – | – | – | – | 78.3 | 0.0083 | 106000 | – | – | – | – | 78.3 | 0.0083 | 106000 | – | –
B9 | – | – | – | – | – | 90.1 | 0.0166 | 185000 | – | – | – | – | 90.1 | 0.0166 | 185000 | – | –
B10 | 3 | 0.00055 | 190000 | 2.1 nM (half the concentration of the Fab) | 100 | – | – | – | 1.47 | – | – | – | – | – | – | – | –
B11 | – | – | – | – | – | – | 0.007 | – | – | – | – | – | – | – | – | – | –
B12 | 9 | 0.001 | 110000 | 5.3 nM (half the concentration of the Fab) | 100 | 8.74 | 0.00096 | 110000 | – | – | – | – | – | – | – | – | –
B13 | 7.6 | 0.00094 | 120000 | 4.7 nM (half the concentration of the Fab) | 100 | 7.61 | 0.00094 | 123000 | – | – | – | – | – | – | – | 8 | –
B14 | 6.3 | 0.0011 | 180000 | 3 nM (half the concentration of the Fab) | 100 | 6.3 | 0.0011 | 180000 | 1.3 | 0.003 | no binding (tested: 100 ng/well) | 0.006 | – | – | – | – | –
B15 | – | – | – | – | – | 108 | 0.0209 | 193000 | – | – | – | – | 108 | 0.0209 | 193000 | – | –
B16 | 3 | 0.00053 | 180000 | 7.3 nM (half the concentration of the Fab) | 100 | 3.01 | 0.00053 | 176000 | 1.49 | – | – | – | – | – | – | – | –
B17 | – | – | – | – | – | – | – | – | – | – | – | – | – | – | – | – | 47
